In patent US20250163127A1 one finds MFI, Fold change to WT CD80 and fold increase to WT ECD data, which are given here for 49 substances.

Several values for one entry are separate records, joined by “and”; a condition that tells them apart may be missing. Equal values may be shown once.

Assay [1] deals with CD28 (human) (UniProt P10747). The assay is described as follows: flow cytometry, transfected cells.
In assay [2] the target is CTLA-4 (Homo sapiens (Human)) (UniProt P16410). The assay is described as follows: flow cytometry, transfected cells.
Assay [3] deals with PD-L1 (human). The experiment in a line: flow cytometry, cells expressing PD-L1.
The target of assay [4] is CD28 (human) (UniProt P10747). The assay is described as follows: flow cytometry, Jurkat cells (CD28).
Assay [5] has as its target CTLA-4 (human). The assay is described as follows: flow cytometry, CHO cells expressing CTLA4.
Assay [6] addresses PD-L1 (human). The assay is described as follows: flow cytometry, CHO cells expressing PD-L1.
The target in assay [7] is CD28 (human) (UniProt P10747). The experiment in a line: flow cytometry, cells expressing CD28.
Assay [8] concerns the target CD112R (human) (UniProt Q6DKI7). The experiment in a line: flow cytometry, transfected HEK293 cells.
Assay [9] has as its target T1, CD226 (human) (UniProt Q15762).
T1 sequence: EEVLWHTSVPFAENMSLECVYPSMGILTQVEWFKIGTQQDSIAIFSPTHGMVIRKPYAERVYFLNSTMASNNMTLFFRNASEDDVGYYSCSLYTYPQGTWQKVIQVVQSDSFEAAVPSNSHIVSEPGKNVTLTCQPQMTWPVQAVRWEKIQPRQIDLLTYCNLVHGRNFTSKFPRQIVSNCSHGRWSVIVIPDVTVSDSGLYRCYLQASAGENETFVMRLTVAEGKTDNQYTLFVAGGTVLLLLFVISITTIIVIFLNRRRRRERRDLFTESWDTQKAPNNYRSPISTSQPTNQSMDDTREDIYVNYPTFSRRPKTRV
The assay is described as follows: flow cytometry, transfected HEK293 cells.

Assay [10] concerns the target T2, CD96 (human) (UniProt P40200).
T2 sequence: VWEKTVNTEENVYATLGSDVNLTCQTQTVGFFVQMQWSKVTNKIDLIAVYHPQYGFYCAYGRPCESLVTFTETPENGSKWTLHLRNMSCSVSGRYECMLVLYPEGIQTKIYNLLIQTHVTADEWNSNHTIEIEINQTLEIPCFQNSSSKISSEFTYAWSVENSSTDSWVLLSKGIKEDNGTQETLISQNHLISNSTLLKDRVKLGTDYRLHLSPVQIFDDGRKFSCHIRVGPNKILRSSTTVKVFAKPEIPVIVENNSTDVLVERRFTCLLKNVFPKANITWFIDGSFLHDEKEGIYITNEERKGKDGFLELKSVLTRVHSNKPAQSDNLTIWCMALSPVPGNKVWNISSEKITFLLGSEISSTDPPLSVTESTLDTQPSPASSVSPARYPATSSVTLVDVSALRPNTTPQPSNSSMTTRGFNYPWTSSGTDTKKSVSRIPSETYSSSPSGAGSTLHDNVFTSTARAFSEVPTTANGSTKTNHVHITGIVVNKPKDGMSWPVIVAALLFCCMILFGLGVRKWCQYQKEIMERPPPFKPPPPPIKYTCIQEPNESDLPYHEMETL
The experiment in a line: flow cytometry, transfected HEK293 cells.

In assay [11] the target is T3, TIGIT (human) (UniProt Q495A1).
T3 sequence: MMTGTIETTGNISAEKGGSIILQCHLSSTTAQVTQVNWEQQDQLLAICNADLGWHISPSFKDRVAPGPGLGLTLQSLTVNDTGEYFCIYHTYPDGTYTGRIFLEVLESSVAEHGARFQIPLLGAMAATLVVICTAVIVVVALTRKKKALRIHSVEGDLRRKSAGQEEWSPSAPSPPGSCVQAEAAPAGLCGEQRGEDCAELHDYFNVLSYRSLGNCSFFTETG
The assay is described as follows: flow cytometry, transfected HEK293 cells.

Sequence of CD112R (human) (Q6DKI7 whole entry): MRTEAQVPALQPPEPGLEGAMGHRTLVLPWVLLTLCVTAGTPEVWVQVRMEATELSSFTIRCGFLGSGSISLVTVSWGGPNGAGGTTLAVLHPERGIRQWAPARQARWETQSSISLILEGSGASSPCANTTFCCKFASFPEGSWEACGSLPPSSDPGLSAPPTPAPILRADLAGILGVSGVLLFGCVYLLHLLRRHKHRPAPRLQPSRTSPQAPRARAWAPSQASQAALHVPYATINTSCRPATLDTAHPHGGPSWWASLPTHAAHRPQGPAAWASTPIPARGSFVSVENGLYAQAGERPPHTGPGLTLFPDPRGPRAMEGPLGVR
Sequence of wild-type CD155 IgV-Fc (Fc fusion) (chain): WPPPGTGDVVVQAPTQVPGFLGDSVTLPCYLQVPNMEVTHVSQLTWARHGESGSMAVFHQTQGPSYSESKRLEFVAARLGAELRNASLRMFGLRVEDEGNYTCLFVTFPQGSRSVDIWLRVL
Sequence of PD-L1 (human) (chain, as listed by the source): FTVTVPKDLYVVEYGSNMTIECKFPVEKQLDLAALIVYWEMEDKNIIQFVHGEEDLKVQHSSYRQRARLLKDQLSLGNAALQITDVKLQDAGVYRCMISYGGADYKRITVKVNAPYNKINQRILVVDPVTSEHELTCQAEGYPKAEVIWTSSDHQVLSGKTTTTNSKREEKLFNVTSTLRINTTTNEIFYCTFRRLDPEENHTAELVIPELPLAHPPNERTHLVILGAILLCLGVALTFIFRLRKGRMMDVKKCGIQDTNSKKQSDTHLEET
Sequence of CTLA-4 (human) (chain, as listed by the source): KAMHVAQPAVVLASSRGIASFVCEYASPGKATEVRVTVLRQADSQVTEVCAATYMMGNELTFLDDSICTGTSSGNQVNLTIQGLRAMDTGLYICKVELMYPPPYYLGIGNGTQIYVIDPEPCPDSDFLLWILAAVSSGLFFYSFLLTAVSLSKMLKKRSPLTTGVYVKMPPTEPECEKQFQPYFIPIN
Sequence of WT CD80 (Fc fusion) (chain): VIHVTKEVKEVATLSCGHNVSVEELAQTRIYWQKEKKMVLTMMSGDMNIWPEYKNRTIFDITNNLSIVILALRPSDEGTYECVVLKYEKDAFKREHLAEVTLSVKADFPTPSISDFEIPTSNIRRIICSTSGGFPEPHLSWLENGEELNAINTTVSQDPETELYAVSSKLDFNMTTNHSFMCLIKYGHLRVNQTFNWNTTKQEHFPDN

With ICOSL-Fc N52D/N57A/Q100A (Fc fusion), the figures for the MFI in [1] and in [2] were 138000 MFI and 340000 MFI, respectively.
Consider ICOSL-Fc N52D/Q100S (Fc fusion), for which the results for the MFI in [1] and in assay [2] were 95700 MFI and 333000 MFI, respectively.
Turning to ICOSL-Fc N52G/N57P/Q100D (Fc fusion), the MFI in assay [1] was 5720 MFI; in [2], 10200 MFI.
The substance ICOSL-Fc N52P/N57P (Fc fusion) yielded an MFI in assay [1] of 21000 MFI.
ICOSL-Fc N52R/N57F/Q100N (Fc fusion): the MFI in [1] is 161000 MFI; in [2], 233000 MFI.
With ICOSL-Fc N52R/N57F/Q100P (Fc fusion), the MFI came to 154000 MFI in [1] and 504000 MFI in [2].
On the same counts, the results for ICOSL-Fc N52R/N57F/Q100R (Fc fusion) are 185000 MFI and 464000 MFI.
As to ICOSL-Fc N52R/N57W (Fc fusion), the MFI in assay [1] was 137000 MFI; in assay [2], 318000 MFI.
Turning to ICOSL-Fc N52R/N57Y/Q100P (Fc fusion), the MFI in assay [1] was found to be 133000 MFI; in [2], 502000 MFI.
ICOSL-Fc N52S/N57A/Q100A (Fc fusion): the MFI came to 98200 MFI in assay [1] and 233000 MFI in assay [2].
On the same counts, the results for ICOSL-Fc N52S/N57L/Q100G (Fc fusion) are 71900 MFI and 79400 MFI.
Take ICOSL-Fc N52T/N57K/Q100P (Fc fusion): the MFI in [1] came to 88700 MFI; in assay [2] it was 78300 MFI.
Take ICOSL-Fc N52T/N57Y/Q100A (Fc fusion): the MFI in assay [1] is 161000 MFI; in assay [2], 341000 MFI.
On the same counts, the results for ICOSL-Fc N52V/N57L/Q100A (Fc fusion) are 132000 MFI and 252000 MFI.
As for WT CD80 (Fc fusion), the MFI in [3] was 70 MFI.
For the substance “variant CD80 A26E/E35D/M47L/A71G (Fc fusion)”, the Fold change to WT CD80 came to 0.12 fold in [4] and 4.49 fold in assay [6]. Besides, the MFI at 33.3 nM in assay [4] amounted to 2160 MFI; in assay [5], 341000 MFI; in assay [6] it was 53400 MFI.
For variant CD80 E35D/A71G (Fc fusion), the results for the MFI at 33.3 nM in assay [5] and in [6] were 184000 MFI and 34100 MFI, respectively.
In the case of “variant CD80 E35D/D46E/M47V/A71D (Fc fusion)”, the MFI at 33.3 nM in assay [6] is 549 MFI.
For “variant CD80 E35D/D46E/M47V/A71D/D90G (Fc fusion)”, the MFI at 33.3 nM in assay [5] is 275000 MFI; in assay [6], 32400 MFI.
Consider “variant CD80 E35D/D46V/M47L/V68M/L85Q/E88D (Fc fusion)”, for which the MFI at 33.3 nM in [6] came out at 137000 MFI.
On the same count and under the same terms, the result for “variant CD80 E35D/K37E/M47V/N48D/L85Q/D90N (Fc fusion)” reads 26500 MFI; that for “variant CD80 E35D/M38T/D46E/M47V/N48S (Fc fusion)”, 19400 MFI.
Consider “variant CD80 E35D/M38T/M43V/M47V/N48R/L85Q (Fc fusion)”, for which the figures for the MFI at 33.3 nM in [5] and in [6] were 204000 MFI and 21800 MFI, respectively.
With “variant CD80 E35D/M42V/M47V/E52D/L85Q (Fc fusion)”, the Fold change to WT CD80 in assay [4] came out at 0.07 fold; in [5], 1.44 fold. For the same substance, the MFI at 33.3 nM in [4] is 1290 MFI; in assay [5], 226000 MFI; in assay [6], 11900 MFI.
For “variant CD80 E35D/M43I/M47V/K89N (Fc fusion)”, the MFI at 33.3 nM in [5] was 278000 MFI; in [6], 19200 MFI.
With “variant CD80 E35D/M47I/Y87Q/K89E (Fc fusion)”, the figures for the MFI at 33.3 nM in [4] and in assay [6] were 15500 MFI and 29800 MFI, respectively.
Regarding “variant CD80 E35D/M47L/A71G/L85Q (Fc fusion)”, in assay [4], the MFI at 33.3 nM worked out at 1440 MFI.
On to variant CD80 E35D/M47V/A71G (Fc fusion), for which the MFI at 33.3 nM in assay [4] worked out at 6360 MFI; in assay [6], 36200 MFI.
Take “variant CD80 E35D/M47V/A71G/E88D (Fc fusion)”: the Fold change to WT CD80 in assay [4] is 0.35 fold; in [6], 3.13 fold. The MFI at 33.3 nM in [4] came to 6240 MFI; in [5], 212000 MFI; in assay [6], 37100 MFI.
With “variant CD80 E35D/M47V/N48T/L85Q (Fc fusion)”, the values for the MFI at 33.3 nM in assay [4] and in assay [6] were 692 MFI and 35500 MFI, respectively.
In the case of “variant CD80 E35D/M47V/T62A/A71D/K93E (Fc fusion)”, the results for the MFI at 33.3 nM in assay [5] and in assay [6] were 226000 MFI and 693 MFI, respectively.
“variant CD80 E35D/T41S/M43I/A71G/D90G (Fc fusion)”: the MFI at 33.3 nM in assay [5] is 208000 MFI.
Turning to “variant CD80 E35D/T41S/M43I/M47L/A71G (Fc fusion)”, the MFI at 33.3 nM in assay [4] worked out at 3100 MFI; in assay [5], 209000 MFI.
Take “variant CD80 E35D/T41S/M43I/M47V/A71G (Fc fusion)”: the MFI at 33.3 nM in [4] came to 2840 MFI; in assay [6], 44400 MFI.
For “variant CD80 H18Y/A26E/E35D/M47L/L85Q/D90G (Fc fusion)”, the Fold change to WT CD80 in [4] worked out at 0.2 fold; in assay [5] it was 1.47 fold. For the same substance, the MFI at 33.3 nM was determined as 3540 MFI in assay [4], 231000 MFI in assay [5] and 52400 MFI in [6].
The substance variant CD80 H18Y/E35D/N48K (Fc fusion) had an MFI at 33.3 nM in assay [5] of 261000 MFI.
On to “variant CD80 I30V/E35D/M47V/A71G/A91V (Fc fusion)”, for which the MFI at 33.3 nM in assay [5] turned out to be 205000 MFI; in assay [6], 43900 MFI.
Substance “variant CD80 K36E/I67T/L70Q/A91G/I118V/T120S/T130A/N152T (Fc fusion)” showed an MFI in assay [7] of 8 MFI.
In turn, “variant CD80 L70Q/A91G/N144D (Fc fusion)” showed an MFI in [3] of 6 MFI.
Turning to “variant CD80 Q27H/E35D/D46V/M47L/A71G (Fc fusion)”, the MFI at 33.3 nM in assay [4] came to 10400 MFI.
On to “variant CD80 Q33R/E35D/M47V/N48K/L85M/F92L (Fc fusion)”, for which the MFI at 33.3 nM amounted to 2680 MFI in assay [5] and 21400 MFI in assay [6].
The substance “variant CD80 V22D/E35D/M47L/L70M/L97Q (Fc fusion)” displayed an MFI at 33.3 nM in [4] of 527 MFI.
Turning to “variant CD80 V22D/E35D/M47L/L85Q (Fc fusion)”, the results for the MFI at 33.3 nM in assay [4] and in assay [5] were 542 MFI and 256000 MFI, respectively.
For “variant CD80 V22L/Q27H/E35D/M47I/A71G (Fc fusion)”, the Fold change to WT CD80 in assay [4] is 0.4 fold; in assay [5], 0.96 fold. Moreover, the MFI at 33.3 nM was 7270 MFI in assay [4], 152000 MFI in assay [5] and 43800 MFI in assay [6].
In assay [3], “variant CD80 Y31H/T41G/M43L/L70Q/A91G/I118V/T120S/I126V/T130A (Fc fusion)” yielded an MFI of 6 MFI.
As to “variant CD155 IgV-Fc, S52L, L104E (Fc fusion)”, the MFI at 100 nM is 1760 in assay [8], 2210 in assay [9], 1830 in assay [10] and 4320 in assay [11]. The figures for the fold increase to WT ECD in assay [8] and in assay [10] were 0.99 fold and 0.02 fold, respectively.
Consider variant CD155 IgV-Fc, S52Q (Fc fusion), for which the MFI at 100 nM in assay [8] was determined as 1790; in assay [9] it was 2020; in assay [10] it was 1820; in [11] it was 2290. Moreover, the figures for the fold increase to WT ECD in assay [8] and in assay [10] were 1 fold and 0.02 fold, respectively.
Take “variant CD155 IgV-Fc, T45Q, S52R, G111R (Fc fusion)”: the MFI at 100 nM in assay [8] was 1790; in [9], 2080; in [10], 2340; in assay [11] it was 4090. For the same substance, the fold increase to WT ECD was determined as 1.01 fold in assay [8] and 0.02 fold in [10].
wild-type CD155 IgV-Fc (Fc fusion): the MFI at 100 nM is 2170 and 1740 and 2940 in assay [8]; 2320 and 2370 and 4690 in [9]; 1890 and 1680 and 3270 in assay [10]; 1960 and 2180 and 4690 in assay [11]. The fold increase to WT ECD in assay [8] is 1.22 fold and 0.98 fold and 1.65 fold; in assay [10] it was 0.02 fold; in [11], 0 fold.
